Results on two molecules are retold here after patent US20210179698A1 (AstraZeneca / MedImmune, published 2021).

Where a chain is given by its changes, count along the chain named.

The target of assay [1] is rat α-syn (rat, UniProt P37377 1-140). Nature of the assay: direct binding HTRF assay. In general terms: In TR-FRET formats the signal depends on donor and acceptor labels being close together.
Assay [2] deals with disease relevant pathological forms of human α-syn in Parkinson's disease brain tissue (human, UniProt P37840 1-140). Nature of the assay: immunohistochemistry of Parkinson's disease brain tissue.
Assay [3] concerns the target T1, 1-60 (human, UniProt P37840).
T1 construct: residues 1-60, N-terminal region only; coated on ELISA wells; also called α-syn truncate 1-60; aa1-60
As to the kind of experiment: ELISA on coated α-syn truncates, anti-human IgG-HRP detection.
Procedure: (§1) Briefly, one microgram per milliliter of each truncate was coated to a microtitre well overnight at 4° C. […] Following 1 h incubation and washing the bound antibody was detected by addition of an anti-human IgG conjugated to either HRP or Eu³⁺. Subsequent to incubation and washing, the appropriate detection substrate was added (TMB or DELFIA Enhancer solution respectively) and the plate read on a microtitre plate reader.

Assay [4] has as its target T2, 1-95 (human, UniProt P37840).
T2 construct: residues 1-95, N-terminal and NAC regions; coated on ELISA wells; also called α-syn truncate 1-95; aa1-95
The assay is described as above.
Procedure: as §1

The target in assay [5] is T3, NCAP (human, UniProt P37840-2).
T3 construct: alternatively spliced form missing amino acids 103-129; coated on ELISA wells; also called alternatively spliced form of α-syn missing amino acids 103-129
Described as above.
Procedure: as §1

In assay [6] the target is native, endogenously expressed intracellular human α-syn in SH-SY5Y neuroblastoma cells (human, UniProt P37840 1-140). As to the kind of experiment: flow cytometry on fixed, permeabilised SH-SY5Y cells, anti-human IgG-FITC.
Procedure: After extensive washes, bound antibody was detected by incubation with an anti-human or anti-mouse IgG-FITC secondary antibody. Following further washes the cells were analyzed with a FACS Canto II apparatus (Becton Dickinson, Franklin Lakes, N.J.) and data analysis was performed using FlowJo Software (Tree Star, Ashland, Oreg.).
Assay [7] deals with T4, 61-140 (human, UniProt P37840).
T4 construct: residues 61-140, NAC plus C-terminal region; coated on ELISA wells; also called α-syn truncate 61-140; aa61-140
Nature of the assay: ELISA on coated α-syn truncates (1 µg/ml coat, 1 µg/ml antibody), anti-human IgG-HRP detection. For orientation: In an ELISA, binding on a coated surface is turned into a signal by an enzyme label.
Procedure: as §1

In assay [8] the target is T5, 96-140 (human, UniProt P37840).
T5 construct: residues 96-140, C-terminal region only; coated on ELISA wells; also called α-syn truncate 96-140; C-terminal region only
The assay is described as above.
Procedure: as §1

Assay [9] deals with T6, ΔNAC (human, UniProt P37840).
T6 construct: NAC region deleted; coated on ELISA wells; also called ANAC; α-syn with NAC region deleted
The assay is described as above.
Procedure: as §1

Assay [10] has as its target human alpha-synuclein (recombinant) (human, UniProt P37840 1-140). The description is as above.
Procedure: as §1
Assay [11] concerns the target T7, human beta-synuclein (recombinant) (human, UniProt Q16143 1-134).
T7 construct: also called β-syn; β-synuclein
As to the kind of experiment: HTRF epitope competition: unlabelled synuclein titrated against biotinylated human α-syn for binding to aslo0543.
Procedure: (§2) IC₅₀ values were determined by curve fitting the data to a four parameter logistic equation using PRISM 6® software (Graphpad). […] For the negative control, the antibody test sample was replaced with an isotype control antibody or buffer only.

In assay [12] the target is T8, human gamma-synuclein (recombinant) (human, UniProt O76070 1-127).
T8 construct: also called γ-syn; γ-synuclein
The assay is described as above.
Procedure: as §2

The target in assay [13] is aggregated human α-syn (human, UniProt P37840 1-140). As to the kind of experiment: DELFIA pair-wise capture ELISA: mouse IgG1 version of the antibody as capture, human IgG1 TM version of the same antibody as detection, anti-human IgG-Eu.
Procedure: Subsequent to incubation and washing, the appropriate detection substrate was added (TMB or DELFIA Enhancer solution respectively) and the plate read on a microtitre plate reader.
Assay [14] addresses T7, human beta-synuclein (recombinant). As to the kind of experiment: HTRF epitope competition: unlabelled synuclein titrated against biotinylated human α-syn for binding to aslo0452 ngl-3.
Procedure: as §2
For assay [15], the target named is T8, human gamma-synuclein (recombinant). Described as above.
Procedure: as §2

B1: aslo0543 (antibody, human IgG1, lambda, V domains shown)
VH: not shown
VL: QAVLTQPASLSASPGASASLTCTLRSSGDFSRYRIYWYQQKPGSPPQYLLRYKSDADKHQGSGVPSRFSGSKDASANAGILLISGLQSEDEADYYCMVWSSGAWYFGGGTKLTVLG
notes: also called aslo0543 IgG
With B1, the binding result is “binds” in assay [1]; “binds” in [2]; “no binding (tested: 1 µg/ml (single concentration))” in assay [3]; “no binding (tested: 1 µg/ml (single concentration))” in [4]; “no binding (tested: 1 µg/ml (single concentration))” in assay [5]; “binds” in assay [6]. For the same molecule, the binding result is reported as “binds” in assay [7]; “binds” in assay [8]; “binds” in assay [9]; “binds” in [10]; “no binding” in [11]; “no binding” in [12]. In addition, the binding result in assay [13] is “binds”.

B2: aslo0452 ngl-3 (antibody, human IgG1, lambda, V domains shown)
VH: EVQLLESGGGLVQPGGSLRLSCAASGFTFSSYAMSWVRQAPGKGLEWVSSISHLGGSTYYADSVKGRFTISRDNSKNTLYLQMNSLRAEDTAVYYCAGGANHGKYYYGMDKWGQGTTVTVSS
VL: B1 VL with S27G, G28A, D29P, F30L, S31P, R32K, S100D, S101H, A103V
notes: also called aslo0452 ngl-3 IgG; aslo0452-ngl3-hIgG1TM
As to B2, the binding result is “no binding (tested: 1 µg/ml (single concentration))” in [3]; “binds” in [8]; “binds” in assay [9]; “no binding” in [14]; “no binding” in [15].
